{
  "source": "the DeepSol protein solubility set",
  "data": [
    {"experiment": "soluble on expression in E. coli; label from the status in PepcDB or PDB records", "values": [
      {"sequence": "MCSISRGKLSTVLKSTSSCIFENLAYEEHIFRTHNVAQNGEILLMWSNRPAVVIGRHQNPWIEVNIPYANKNNIQIVRRHSGGGTVYHDLGNLNISLLTTHAQHCRPKNLKFISDALNQQFSVKIVPNKRDDMELHPGERKCSGTAARIARGQAYHHLTLLVGADLQVLSKSLKSPWRDKIESNATRSVRAPAVGFLKQDDANANVEQSKLAIVEAYRKLFEESHIKTVNVAEEVKKNAEISKIFDELKAWKWIYGKSPKFQYSRENKSIIEMMRTAHKDREPWRDIRRMSKWQGVRVCDEPSPWYMSIPTPFSQFHNVLPEEQEEMVFTELKLFLVGNQTENIRIDEYDKHDLPISILANISFDPFIRSELERFHDILVTVATIKICCYAITHDSVTFSSISSAVASTIEKKVNGFITKICTKLSGSTEANQQMNQLLREMHTIHESLNFYNGIVKSIYLDQLIGGQVLSLLDSKRRHVFSGNVVQNLDDVFQAGWKVFARSIGRLVCKFEADHMDYEFVIWSTKQMTDSQCKTLVPSNPSRQIKSSRYVVIESLCPDFFKKYLDILVRCAEFGDSAKSDSSLRRSTSKKINESESVESVMEDVRNVDWSNLDVATTVRMLVQFSRKESACLLREITSATNVDQAIRDIHDLLIKGSCAHDVMLFGLKADILQKPIDEVGNIRMKKLTNDVLGAAAEKHHPFWKYFSFVIDKQNVFEMLGQRTSLGGNADNLRDNVTPMLFECISVKMDCPIEIEPIISMKAVFILTPVFRIWIQLHVASYTIANYRDSIRGQMPSRSLGDIAMKKHLMHALDAEISSIKQKWVGYVDLLINLYYERIQKAASLDEYTECQDILASDVTNMMGISELSQLENIKDILNIIWNYDNADSNLADLIADFEEVQSRARMDVVVA", "soluble on expression in E. coli": "not soluble"},
      {"sequence": "MKPRESMVRLKMFQVRGKRREIAQLEMMIAEFERMVLELEAQIVHEECKSGNSDVHHFAYSALARAARQRRDNLINSIRDLQLQKTNAEIALHEVTTELQRAQLLEARENGGVAGEKDIFMQSRSMTG", "soluble on expression in E. coli": "not soluble"},
      {"sequence": "MGSDKIHHHHHHLRLQLSTWPEVADYLSTRRGVIIPIGSTEQHGPSGLIGTDAITAEVVSWRAGEVLDTLVAPTIAVGMAHHHMAFPGSMTLRPSTLIAVIRDTILALSSHGFTRFLFVNGHGGNIPSIQSAFYEAYEEMRVHHGDGAPDIACQLCSWFSSPAVEALAAEAFGDAEGSHATPSEVSVTWHAYPDQQRTPVLDPPVAPQGRFTDSRDFRRAFPDGRIGSNPALATPELGGRFVEVAVDYIATTYGDFLKG", "soluble on expression in E. coli": "not soluble"},
      {"sequence": "MDGDQVKGILKSGNNSAQFSLKAAKFDEVNILATFHPAGKDYGHMIIDEPKTPFVFEEDLPKELDTNALIEKLRHTSKSEMPAFGIEGDSEESSADEDFPESVEEKVRRMEFERRRKVHYKEFYSVPLARRLIADEFAELTSSEFNIHCEGGMESCEACSENNQLDGEASNLTQTKYSYSESQSEYRISDHSEPEPGFSPSHHCYQKLKAELFSKAEPEELASLTHLHRMPSVNDDEPSREPRVPYPSVVPTQTQNLHEHKSSLKITSEKPTPARICKSNPDNRPGTSKKETRLEHHHHHH", "soluble on expression in E. coli": "not soluble"},
      {"sequence": "MGSDKIHHHHHHMQLSKAAEMCYEITNSYLHIDQKSQIIASTQEAIRLTRKYLLSEIFVRWSPLNGEISFSYNGGKDCQVLLLLYLSCLWEYFFIKAQNSQFDFEFQSFPMQRLPTVFIDQEETFPTLENFVLETSERYCLSLYESQRQSGASVNMADAFRDFIKIYPETEAIVIGIRHTDPFGEALKPIQRTDSNWPDFMRLQPLLHWDLTNIWSFLLYSNEPICGLYGKGFTSIGGINNSLPNPHLRKDSNNPALHFEWEIIHAFGKDAEGERSSAINTSPISVVDKERFSKYHDNYYPGWYLVDDTLERAGRIKN", "soluble on expression in E. coli": "not soluble"},
      {"sequence": "MFAKVHPAEDVKSGNTGSCHDLVRYLEKETGEGQRFFSHTEQDISPERVIMDIDGNKKALGANDAKFFMLSLNPSQSEQMHLIGRKVDDFKELTPQEKKEVFQKLEAFTRSAMDEYALNFGRDNIRGGQDLMYYARVETERSYHPEDEEVKQGIARIGEPKPGLNLHVHVIVSRKSLDGKVKLSPGAKSAGNTWELEGRGTVKRGFSHEGWKVRVQECFNRKFDYQA", "soluble on expression in E. coli": "not soluble"},
      {"sequence": "MKKAAVSGRLYEVFDVFADKALAGNPLAIVHDCEGLTDACMQAIAREFNLSETVFIHAPANPAHEASVRIFTPAYELPFAGHPTVGAAVSLARRQKTGDETDRLVTLEEKVGIVRCGVILGENSAFAEFDLPRLPEQVDVKIEREEAAAAIGLGTHEIGFENHVPGVWSAGTPCLLVPVHNLIAAAKVSIDPVYVSESLPHVGGRPLPIYVYCRETILFNSHFHARMFVIGANVYEDPATGSAVAAFAGMIQQNDKPVDGSSQWWIEQGMEMGRPSRIRLELDVSKQKLVSARIGGTAVKIAEGRLFVLEHHHHHH", "soluble on expression in E. coli": "not soluble"},
      {"sequence": "GMKFSKFGQKFTQPTGISQLMDDLGDALKSDQPVNMLGGGNPAKIDAVNELFLETYKALGNDNDTGKANSSAIISMANYSNPQGDSAFIDALVGFFNRHYDWNLTSENIALTNGSQNAFFYLFNLFGGAFVNEHSQDKESKSVDKSILLPLTPEYIGYSDVHVEGQHFAAVLPHIDEVTHDGEEGFFKYRVDFEALENLPALKEGRIGAICCSRPTNPTGNVLTDEEMAHLAEIAKRYDIPLIIDNAYGMPFPNIIYSDAHLNWDNNTILCFSLSKIGLPGMRTGIIVADAKVIEAVSAMNAVVNLAPTRFGAAIATPLVANDRIKQLSDNEIKPFYQKQATLAVKLLKQALGDYPLMIHKPEGAIFLWLWFKDLPISTLDLYERLKAKGTLIVPSEYFFPGVDVSDYQHAHECIRMSIAADEQTLIDGIKVIGEVVRELYDNK", "soluble on expression in E. coli": "soluble"},
      {"sequence": "MDHDKSKRLPPSYYTLLEASQEKETTSTKILAQYLDRSPATVRTQFQRIMEFLDVSSRYGALREAEKRGLIRRNKRATSAHHQENRSSL", "soluble on expression in E. coli": "not soluble"},
      {"sequence": "GPGSMFVSDNDDYLPEPQAPGDHHMHEERLRRLEENFALLLNQRSVGNASGPKESTPKARVTAVAADVQAADERSLKLTYELRELVPHLSPGFDCCSADALLLLSAIRNGSHGRGCESWEDRLAVVKAEKRSLHHQLEKKAQECEELKNAVAEMKQRLKAERQEALSSVNVLSQRREQVRKQLLLEESRSQKLQVRNGQLESELERLKDMLHSCMRR", "soluble on expression in E. coli": "not soluble"},
      {"sequence": "MEKSIKIGFIGLGAMGKPMAINLLKEGVTVYAFDLMEANVAAVVAQGAQACENNQKVAAASDIIFTSLPNAGIVETVMNGPGGVLSACKAGTVIVDMSSVSPSSTLKMAKVAAEKGIDYVDAPVSGGTKGAEAGTLTIMVGASEAVFEKIQPVLSVIGKDIYHVGDTGAGDAVKIVNNLLLGCNMASLAEALVLGVKCGLKPETMQEIIGKSSGRSYAMEAKMEKFIMSGDFAGGFAMDLQHKDLGLALEAGKEGNVPLPMTAMATQIFEGGRAMGLGREDMSAVIKVWEQMTGVSVSGGQ", "soluble on expression in E. coli": "soluble"},
      {"sequence": "MGSDKIHHHHHHMWTPCGRADGNANSPRQSQFALDDLIDIPTDFSLYSTALKKFSQGMERPMYRNFRIVPNIIFGRGSFNQLDDVLKDRRVTADSWMVFVVDDVFTGKPLEGRFPLRGRDLLLWVNVDDEPKTRYIDELVARIRAYSPTAPAGIAGIGGGSAMDIAKAVSLMLNNPGSSADYQGWDLIKNPAVYHVAVPTLAGTGAEISRTTILTGPEKKLGINSDYTLYDQILLDPELLAGVPKNQWFYTGMDCYIHDVESLNGTFINEFSKAYGEKSRDLCREVFLDDSPAKDDKLMMASYFGGMSIAYSQVGACHALSYGLSYVLGIHHGVGCCIAFDQLEEIYPEGVQEFRQMMEKHDIPLPRNLTKDLDSASMEKMVTTALNLVPLWENCLGPDWANIMTRERAMELYKKM", "soluble on expression in E. coli": "not soluble"},
      {"sequence": "MSSAPNDDCEIDKGTPSTASLFTTLMLSQPSSSTAVLQCTYCGSSCTSSQLQTCLFCGTVAYCSKEHQQLDWLTHKMICKSLQTSGMVPSNLMPQAAPAVMAPIPPTVSFDDPALTTSLLLSLQNNPILNQTISNFPPTFSITSKTEPEPSIPIQIPQRISSTSTVPFSSEGSAFKPYRNTHVFNSISSESMSSMCTSHEASLEHMSSASLAMFPTSSTAQSDISRLAQVLSLAGDSPASLALVTTSVPSTASTATIPPPATTTSSATSSGKSETITVGKEKIIQTDDPDIQIIETEGGSKPTVSRTRKRPTPSNSADPKINYKDHNKNVVYSTTLQEHQKHLQNRGLALSIHQAMVLRLRYIAEHVIRSLNEFGWAVVDNFLGSDHYKFTAKEIERLYERGLFSPGQLMEAKHKDEFHIKDIRSDHIYWYDGYDGRAKDAATVRLLISMIDSVIQHFKKRIDHDIGGRSRAMLAIYPGNGTRYVKHVDNPVKDGRCITTIYYCNENWDMATDGGTLRLYPETSMTPMDIDPRADRLVFFWSDRRNPHEVMPVFRHRFAITIWYMDKSERDKALAKGKESDAACASKKENDPTSSSLNSLIGSLLRPRKNPSTHDLSKLDLRLFPSTSSDPALVSAADEDRVDISADFQSTSSLAHPESTDSGVSLSTFNVAHNHMERTTSLQSISDHFRSERSHERRSSTSSDQDLDEGLPPPPSTNPEYYI", "soluble on expression in E. coli": "not soluble"},
      {"sequence": "MGSDKIHHHHHHMNTLQRRKTHQVRIDHITVGSEAPVVIQSMTNTDTADAKATALQIKELSDAGSEMVRITVNSPEAASKVAEIRRRLDDMGYATPLIGDFHFNGERLLAEFPECGKALSKYRINPGNVGKGVKGDEKFAFMIRTAAENDKAVRIGVNWGSLDQSLAKRMMDANLASSAPKPPEEVTKEALIVSALESAEKAVLLGLPEDKIILSCKVSAVQDLIQVYRELGSRCAYPLHLGLTEAGMGSKGIVASTAALSVLLQEGIGDTIRISLTPEPGSPRTQEVVVGQEILQTMGLRSFTPMVTACPGCGRTTSTVFQELAQDVQNYLRQKMSIWRTLYPGVESLNVAVMGCVVNGPGESKLADIGISLPGTGETPVAPVYVDGERKVTLKGDNIATEFLAIVEEYVKTNYGENGSKRNQNKIIPIQSL", "soluble on expression in E. coli": "not soluble"},
      {"sequence": "MGSDKIHHHHHHMTAPSPEAWLYMLLQTARELELPWLDLIVDQAEMGARWQSRVGALYPPRMLLQDTPHAEAADEGPVLVRLDANQPQTRLLKLLRQWQGQPRVLALFSGWDYDQLAERLTLCMQASWDKGLQQGVLRFHDPRLFAAVVDALDEPRRQLLLEPAVQWHWLDRDGHARMLDATALQSLPPLEWVHDTLTLEQPHIDALACWHLAETWRQNHLLVPQLYGLDSEEELVRRLAQAHQAADKAKLWSEAERIPVVERMLRENA", "soluble on expression in E. coli": "not soluble"},
      {"sequence": "MSLGSKIVVTGATGNVGTSVVRLLSEDPEVGTVLGLARRIPDWSPAKTEWAAVDLASEQSDLTSHFADADAVVHLAWAFQPTHDPATTWRTNVLGSIRVFEAVAAAGVPALVHASSVGAYSPGPKNHAVDESWPTHGWPDAAYCREKAYLERALDTFERDHPGIRVVRMRPAFLFKRESASEQRRIFGGRFLPGPAARPELLPFLPDVPGLRVQALHTDDAARAYRLAVRSADARGAFNLAAEPPVDAELLGELLGVRPVRLPRAAARSAIAAAWGMRLLPASPHLFDAVLRLPVMDCTRARVELGWGATRTATEVLEEFLRGLRQGAGADTEGHHHHHH", "soluble on expression in E. coli": "soluble"}
    ]}
  ]
}
